# Results published in US10800813 (Bicycle, dated 2020).
# Numbered stars: 1 amine (or outer) side, 2 acyl side, 3 side chain; on linkers, the order of the positions; unused ones are H or OH. Bridge positions count the residues as written; N and C are the ends. Square brackets hold non-standard residues; d marks the D form. Ends that are not written are not given here. 1Nal = N[C@@H](Cc1cccc2ccccc12)C(=O)O; TBMB = c1c(C[*:1])cc(C[*:3])cc1C[*:2]; 3Pal = N[C@@H](Cc1cccnc1)C(=O)O; 4Pal = N[C@@H](Cc1ccncc1)C(=O)O; Cha = N[C@@H](CC1CCCCC1)C(=O)O
# B1: Ac-(06-34-18) Phe2 1Nal4 (peptide)
# peptide: Ac-CSFP[1Nal]RCLHQDLC-NH2
# modifications: linker 1-7-13 via TBMB
# SMILES: CC(=O)N[C@H]1CSCc2cc3cc(c2)CSC[C@H](NC(=O)[C@H](CCCNC(=N)N)NC(=O)[C@H](Cc2cccc4ccccc24)NC(=O)[C@@H]2CCCN2C(=O)[C@H](Cc2ccccc2)NC(=O)[C@H](CO)NC1=O)C(=O)N[C@@H](CC(C)C)C(=O)N[C@@H](Cc1c[nH]cn1)C(=O)N[C@@H](CCC(N)=O)C(=O)N[C@@H](CC(=O)O)C(=O)N[C@@H](CC(C)C)C(=O)N[C@H](C(N)=O)CSC3
# B2: Ac-(06-34-18) Phe2 Cha4 (peptide)
# peptide: Ac-CSFP[Cha]RCLHQDLC-NH2
# modifications: linker 1-7-13 via TBMB
# SMILES: CC(=O)N[C@H]1CSCc2cc3cc(c2)CSC[C@H](NC(=O)[C@H](CCCNC(=N)N)NC(=O)[C@H](CC2CCCCC2)NC(=O)[C@@H]2CCCN2C(=O)[C@H](Cc2ccccc2)NC(=O)[C@H](CO)NC1=O)C(=O)N[C@@H](CC(C)C)C(=O)N[C@@H](Cc1c[nH]cn1)C(=O)N[C@@H](CCC(N)=O)C(=O)N[C@@H](CC(=O)O)C(=O)N[C@@H](CC(C)C)C(=O)N[C@H](C(N)=O)CSC3
# B3: Ac-(06-34-18) Phe2 4Pal4 (peptide)
# peptide: Ac-CSFP[4Pal]RCLHQDLC-NH2
# modifications: linker 1-7-13 via TBMB
# SMILES: CC(=O)N[C@H]1CSCc2cc3cc(c2)CSC[C@H](NC(=O)[C@H](CCCNC(=N)N)NC(=O)[C@H](Cc2ccncc2)NC(=O)[C@@H]2CCCN2C(=O)[C@H](Cc2ccccc2)NC(=O)[C@H](CO)NC1=O)C(=O)N[C@@H](CC(C)C)C(=O)N[C@@H](Cc1c[nH]cn1)C(=O)N[C@@H](CCC(N)=O)C(=O)N[C@@H](CC(=O)O)C(=O)N[C@@H](CC(C)C)C(=O)N[C@H](C(N)=O)CSC3
# Biological target: T1, biotinylated human plasma Kallikrein (human, UniProt P03952 20-638, biotinylated)
# T1 construct: also called Biotinylated hPK
# Test: phage binding assay, signal:background
# Experimental: (§1) Library transformant colonies, or selection output colonies, were picked and grown as individual cultures in 2TY broth containing selective antibiotic. The picked colonies were DNA-sequenced using a QIAgen PyroMark Q96 DNA sequencer to reveal the amino-acid substitution present in each clone, and were assayed for human plasma Kallikrein binding as follows. The phage-containing supernatant was harvested from the culture and phage were cyclised with tris bromomethyl benzene(TBMB) based on the methods of Heinis et al (Nature Chemical Biology vol. 5 pp 502-507 (2009)). The purified phage from this process were assayed for binding to biotinylated human plasma Kallikrein using a homogeneous plate-based binding assay; assay read-out measured on a BMG Labtech Pherastar FS plate reader. The quantitative binding data from duplicate assay samples was averaged (mean) and expressed as signal:background. […] The assay data was correlated with the peptide sequences.
# Selections against human plasma Kallikrein were performed with this library in order to study the non-WPAR (SEQ ID NO: 18) determinants of Kallikrein binding, and to isolate the optimal WPAR (SEQ ID NO: 18)-containing peptide sequence.
# T1 sequence (P03952 20-638 limits assumed): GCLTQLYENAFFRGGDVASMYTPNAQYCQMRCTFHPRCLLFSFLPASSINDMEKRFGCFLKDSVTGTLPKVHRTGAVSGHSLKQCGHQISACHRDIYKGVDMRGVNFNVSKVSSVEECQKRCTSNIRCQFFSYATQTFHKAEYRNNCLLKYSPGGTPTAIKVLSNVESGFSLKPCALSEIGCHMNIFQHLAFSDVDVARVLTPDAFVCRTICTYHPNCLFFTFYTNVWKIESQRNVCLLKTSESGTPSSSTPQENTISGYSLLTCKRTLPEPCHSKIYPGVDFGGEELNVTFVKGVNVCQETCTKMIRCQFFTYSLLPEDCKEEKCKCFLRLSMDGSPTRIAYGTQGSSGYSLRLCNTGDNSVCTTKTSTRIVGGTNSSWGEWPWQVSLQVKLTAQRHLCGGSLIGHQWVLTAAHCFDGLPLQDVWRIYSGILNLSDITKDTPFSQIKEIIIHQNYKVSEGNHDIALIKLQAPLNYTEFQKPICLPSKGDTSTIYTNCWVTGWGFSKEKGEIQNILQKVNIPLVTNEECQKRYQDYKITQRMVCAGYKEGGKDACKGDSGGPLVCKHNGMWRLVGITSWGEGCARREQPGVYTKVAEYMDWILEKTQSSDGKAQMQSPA
row,Binder,Binding assay signal
1,CSWPARCTHQDLC (linker 1-7-13 via TBMB) [SEQ ID NO 73],110

# Biological target: T1, biotinylated human plasma Kallikrein
# Test: phage binding assay
# Experimental: as §1
# A library was constructed where positions 1, 6, 7, 8, 9 &10 of 06-34-03 were fixed and positions 2, 3, 4 & 5 were randomised (see 'Randomisation of peptide domains—Library construction' in Methods above). Selections against human plasma Kallikrein were performed at a variety of stringencies (see 'Phage selections' in Methods above). All output sequences were identified and analysed for target binding (see 'Randomisation of peptide domains—Assay of binding of individual clones' in Methods above). Table 17 lists each unique sequence, its relative abundance in the selection output (frequency), and a rank number according to target binding strength.
row,Binder,Rank (by Kallikrein binding)
1,CSWPARCTHQDLC (linker 1-7-13 via TBMB) [SEQ ID NO 73],1
2,CSFPYKCTHQDLC (linker 1-7-13 via TBMB) [SEQ ID NO 94],22
3,CSYPFRCTHQDLC (linker 1-7-13 via TBMB) [SEQ ID NO 93],21
4,CSHPYRCTHQDLC (linker 1-7-13 via TBMB) [SEQ ID NO 80],8
5,CRFPFKCTHQDLC (linker 1-7-13 via TBMB) [SEQ ID NO 83],11
6,CSWAARCTHQDLC (linker 1-7-13 via TBMB) [SEQ ID NO 79],7
7,CSHPFRCTHQDLC (linker 1-7-13 via TBMB) [SEQ ID NO 81],9
8,CSYPIRCTHQDLC (linker 1-7-13 via TBMB) [SEQ ID NO 90],18
9,CSWPYRCTHQDLC (linker 1-7-13 via TBMB) [SEQ ID NO 82],10
10,CSWPFRCTHQDLC (linker 1-7-13 via TBMB) [SEQ ID NO 86],14
11,CSFPFKCTHQDLC (linker 1-7-13 via TBMB) [SEQ ID NO 78],6
12,CSWPSRCTHQDLC (linker 1-7-13 via TBMB) [SEQ ID NO 74],2
13,CSYPYRCTHQDLC (linker 1-7-13 via TBMB) [SEQ ID NO 98],26
14,CSWWARCTHQDLC (linker 1-7-13 via TBMB) [SEQ ID NO 99],27
15,CSFPIRCTHQDLC (linker 1-7-13 via TBMB) [SEQ ID NO 87],15
16,CSWQARCTHQDLC (linker 1-7-13 via TBMB) [SEQ ID NO 114],42
17,CSWSARCTHQDLC (linker 1-7-13 via TBMB) [SEQ ID NO 91],19
18,CSWHARCTHQDLC (linker 1-7-13 via TBMB) [SEQ ID NO 96],24
19,CSFPYRCTHQDLC (linker 1-7-13 via TBMB) [SEQ ID NO 77],5
20,CSWLARCTHQDLC (linker 1-7-13 via TBMB) [SEQ ID NO 76],4
21,CSFPWRCTHQDLC (linker 1-7-13 via TBMB) [SEQ ID NO 95],23
22,CSLFDHCTHQDLC (linker 1-7-13 via TBMB) [SEQ ID NO 112],40
23,CSHRRWCTHQDLC (linker 1-7-13 via TBMB) [SEQ ID NO 113],41

# Biological target: T2, human plasma Kallikrein (human, UniProt P03952 20-638, limits assumed)
# T2 construct: also called hPK; human PK
# Test: enzyme inhibition assay
# T2 sequence (P03952 20-638 limits assumed): as above
row,Binder,Ki
1,B1,13.5 nM
2,Ac-CS[3Pal]PYRCLHQDLC-NH2 (linker 1-7-13 via TBMB) [Ac-(06-34-18) 3Pal2 Tyr4],0.91 nM
3,Ac-CS[4Pal]PYRCLHQDLC-NH2 (linker 1-7-13 via TBMB) [Ac-(06-34-18) 4Pal2 Tyr4],3.56 nM
4,Ac-CS[Cha]PYRCLHQDLC-NH2 (linker 1-7-13 via TBMB) [Ac-(06-34-18) Cha2 Tyr4],1.87 nM
5,B2,0.91 nM
6,B3,2.2 nM
7,Ac-CSFP[3Pal]RCLHQDLC-NH2 (linker 1-7-13 via TBMB) [Ac-(06-34-18) Phe2 3Pal4],2.57 nM

# Biological target: T2, human plasma Kallikrein
# Test: enzyme inhibition assay
# Remark: another data set of the same source
row,Binder,Ki
1,"ACRWPARCLTTSLCA (linker 2-8-14 via TBMB; not fully specified (N-terminus, C-terminus), also called PK102) [06-59]",0.5 nM
2,"ACGGYNNCRAFSYCA (linker 2-8-14 via TBMB, also called PK115) [1F7]",2.2 nM
3,"ACGVPYRCTHQEMCA (linker 2-8-14 via TBMB; not fully specified (N-terminus, C-terminus), also called PK111) [06-64 T]",6.9 nM
4,"ACNWPYRCLHTDLCA (linker 2-8-14 via TBMB; not fully specified (N-terminus, C-terminus), also called PK110) [06-157]",3.3 nM
5,"ACAWPAKCLTRELCA (linker 2-8-14 via TBMB, also called PK103) [1B1]",8.1 nM
6,"ACADPWACLFRRPCA (linker 2-8-14 via TBMB; not fully specified (N-terminus, C-terminus), also called PK113) [06-63 T]",1280 nM
7,"ACTWPARCTHQNWCA (linker 2-8-14 via TBMB; not fully specified (N-terminus, C-terminus), also called PK107) [06-09]",1.2 nM
8,"ACTWPARCTMQNWCA (linker 2-8-14 via TBMB, also called PK108) [06-A2*]",181 nM
9,"ACSWPARCNHQDLCA (linker 2-8-14 via TBMB; not fully specified (N-terminus, C-terminus), also called PK105) [06-57]",0.4 nM
10,"ACSWPYRCLHQDYCA (linker 2-8-14 via TBMB; not fully specified (N-terminus, C-terminus), also called PK109) [06-61]",5.8 nM
